Target: T1, Cdc6-associated kinase (Clb/Cdk1 kinases) (Saccharomyces cerevisiae, UniProt P00546)
T1 construct: 1 mg of protein extract from K4527, grown in YEPR at 25° C. or induced for 4 hours in YEPRG, was immunoprecipitated with 12CA5 Ab; endogenous in cells; host or cells: S. cerevisiae strain K4527 (W303 background, wild type, 5 copies of GAL-HA3CDC6); The kinase is endogenous; Only the Cdc6 bait is expressed from an introduced construct
Assay: Histone H1 kinase assay of Cdc6-associated kinase immunoprecipitated with 12CA5 Ab
Assay type: biochemical
Conditions: HA3Cdc6 immunoprecipitate from K4527 extract (GAL-HA3CDC6, induced 4 hours in YEPRG); FIG. 5D
Protocol: Protein extracts were prepared as in Schwob et al., 1994. For Clb2 kinase assays, […] of total proteins were immunoprecipitated using anti-Clb2 Ab (1:30, Amon et al., 1992). To assay Cdc6-associated kinase, HA3Cdc6 or Cdc6HA3 was immunoprecipitated with 12CA5 Ab (1:10) from the amounts of protein extracts indicated in figure legends. Histone Hi kinase activity was measured as previously described (Schwob et al., 1994).
D) Cdc6-associated kinase is inhibited by p40^SIC1. 1 mg of protein extract from K4527, grown in YEPR at 25° C. or induced for 4 hours in YEPRG, was immunoprecipitated with 12CA5 Ab and before the last washing step split into four aliquots. Kinase activity was measured in the absence or in the presence of the indicated amounts of purified p40^SIC1. R:Raffinose. G: Galactose. The addition of p40^SIC1 causes the appearance of two additional signals probably due to phosphorylation of p40^SIC1 by an aspecific kinase. E) Cdc28p co-immunoprecipitates with Cdc6p. Cdc6p was immunoprecipitated with 12CA5 Ab from protein extracts (5 mg) of K4527 cells grown at 25° C. in YEPR and induced for 4 hours in YEPRG. Protein A-Sepharose beads were boiled in SDS buffer and analysed by Western blot using Cdc28 Ab (1:500) ([…]. R: Raffinose. G: Galactose).

T1 sequence (P00546 whole entry): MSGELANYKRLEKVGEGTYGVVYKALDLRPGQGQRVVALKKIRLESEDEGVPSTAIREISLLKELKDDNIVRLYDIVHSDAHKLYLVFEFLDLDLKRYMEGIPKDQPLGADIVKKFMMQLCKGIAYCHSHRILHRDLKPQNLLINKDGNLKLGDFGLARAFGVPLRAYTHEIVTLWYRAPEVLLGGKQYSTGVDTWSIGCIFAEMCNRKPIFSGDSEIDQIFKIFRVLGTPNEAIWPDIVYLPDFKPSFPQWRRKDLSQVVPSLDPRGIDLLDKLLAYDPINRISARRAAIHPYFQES

B1: p40^SIC1: purified Clb-specific Cdk inhibitor protein of budding yeast, encoded by SIC1 (protein, UniProt P38634 1-284, looked up)
Protein SIC1: MTPSTPPRSRGTRYLAQPSGNTSSSALMQGQKTPQKPSQNLVPVTPSTTKSFKNAPLLAPPNSNMGMTSPFNGLTSPQRSPFPKSSVKRTLFQFESHDNGTVREEQEPLGRVNRILFPTQQNVDIDAAEEEEEGEVLLPPSRPTSARQLHLSLERDEFDQTHRKKIIKDVPGTPSDKVITFELAKNWNNNSPKNDARSQESEDEEDIIINPVRVGKNPFASDELVTQEIRNERKRAMLRENPDIEDVITYVNKKGEVVEKRRLTDEEKRRFKPKALFQSRDQEH
Q: How did the “Cdc6-associated histone H1 kinase activity on addition of purified p40^SIC1” value turn out when B1 was run?
A: inhibited
